From US20200289560A1 (RUPRECHT KARLS UNIVERSIT T HEIDELBERG, published 2020) come the findings set out here.

For the assay, the target named is T1, human pyruvate kinase M2 (PKM2) (human, UniProt P14618 1-531).
T1 construct: also called tetrameric PK M2; human PK M2
Nature of the assay: ultrafiltration (Amicon 30k) of equimolar 2 µM human PK M2 and 2 µM human HMGB1, Western blot of filtrate and retentate. How it is done: Ultrafiltration of the PK M2-HMGB1 complex: equimolar amounts of HMGB1 and PKM2 were mixed in a final volume of 300 μl and filtrated (14000 g, 4° C.) to a final volume of 15 μl in an Amicon Ultra 0.5 ml 30k device (Merck-Millipore, Darmstadt, Germany). The retentate was adjusted to the original volume after centrifugation. Then filtrate and retentate were analyzed by Western Blot. For controls HMGB1 and PKM2 were also analyzed alone. Pure HMGB1 (2 μM) suited as a negative control.
In general terms: Immunoblotting shows a protein as a band on a membrane.

T1 sequence (P14618 whole entry): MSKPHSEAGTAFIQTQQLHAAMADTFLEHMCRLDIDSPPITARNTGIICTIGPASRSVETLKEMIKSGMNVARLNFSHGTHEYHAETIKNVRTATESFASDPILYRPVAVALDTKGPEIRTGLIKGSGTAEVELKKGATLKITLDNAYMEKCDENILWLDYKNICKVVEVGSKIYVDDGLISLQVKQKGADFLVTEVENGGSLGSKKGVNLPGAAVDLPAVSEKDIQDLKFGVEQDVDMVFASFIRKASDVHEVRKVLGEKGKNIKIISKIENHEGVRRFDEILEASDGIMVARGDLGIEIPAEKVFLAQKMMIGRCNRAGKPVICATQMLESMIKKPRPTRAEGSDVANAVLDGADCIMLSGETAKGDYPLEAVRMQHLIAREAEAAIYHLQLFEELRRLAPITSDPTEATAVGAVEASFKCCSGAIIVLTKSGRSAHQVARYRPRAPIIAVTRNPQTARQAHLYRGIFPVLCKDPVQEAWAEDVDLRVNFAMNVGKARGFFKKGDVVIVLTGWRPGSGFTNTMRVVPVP

B1: recombinant human HMGB1 protein (High Mobility Group Box 1 polypeptide) (other)
chain: MGKGDPKKPRGKMSSYAFFVQTCREEHKKKHPDASVNFSEFSKKCSERWKTMSAKEKGKFEDMAKADKARYEREMKTYIPPKGETKKKFKDPNAPKRPPSAFFLFCSEYRPKIKGEHPGLSIGDVAKKLGEMWNNTAADDKQPYEKKAAKLKEKYEKDIAAYRAKGKPDAAKKGVVKAEKSKKKKEEEEDEEDEEDEEEEEDEEDEDEEEDDDDE
notes: also called rhHMGB1; 125I-labelled HMGB1
For the molecule B1, the binding result is “binds”.
